# Experimental data: the nanobody polyreactivity screen of Harvey et al. (2022)
# Experiment: yeast display, Sf9 membrane polyspecificity reagent, FACS + sequencing; frameworks hold sequencing errors
# How it was run: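 Nanobodies came from a synthetic yeast display library in Saccharomyces cerevisiae BJ5465, induced with galactose for 36–48 hours and stained for 1 hour at 4 °C with 10% biotinylated, detergent-solubilized Sf9 membrane reagent. Cells were enriched on streptavidin microbeads and then FACS-sorted, with low and high (top ~1%) gates set on anti-HA fluorescence for expression and streptavidin fluorescence for reagent binding. Each polyreactivity label reflects the gate a clone came from. Genes were amplified by colony PCR, sequenced by MiSeq 2 × 250 and filtered by CDR length.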
row,Sequence,polyreactivity (PSR sort gate)
1,QVQLVESGGGLVQAGGSLRLSCPASGGTFSFYTMGGYRQSPGKEREWVAAIDSTGRTNYADSVKGRFTISRDYPKNTVYLQMNRLIPEDTAVYYCAAVSPTYPYTFYRYNYWGQGTQVTVSS,low polyreactivity
2,QVQLVESGGGLVQAGGSLRLSCPASGIIFKGYAMGWYRQAPGKERELVAAISQSGGSTYYADSVKGRFTISRDNAKNTVYLQMNSLKPEDTAVYYCNARYSRVVPRYYYWGQGTQVTVSS,high polyreactivity
3,QVQLVESGGGLVQAGGSLRLSCPASGIIFNDYAMGWYRQAPGKEREMVAAITSNGDNTYYADSVKGRFTISRDNAKNTVYLQMNSLKPEDTAVYYCAVDGSFAADFDNYLEEYGYWGQGTQVTVSS,low polyreactivity
4,QVQLVESGGGLVQAGGSLRLSCPASGIIFNLYAMGWYRQAPGKERELVAAISWSGGSTDYADSVKGRFTISRDNAKNTVYLQMNSLKPEDTAVYYCATSFLYPYFDEDDYWGQGTQVTVSS,high polyreactivity
5,QVQLVESGGGLVQAGGSLRLSCPASGITFGSYAMGWYRQAPGKERELVAAITSGGGTNYADSEKGRFTISRDNAKNTVYLHMNSLKPEDTAGYYCAARYYYLGTRYGYWGQGTQVTVSS,low polyreactivity
6,QVQLVESGGGLVQAGGSLRLSCPASGITVTAYAMGWYRQAPGKERELVATINSTGITNYADSVKGRFTISRDNAKNTVYLQMNSLKPEDTAVYYCAADLMDSSSYDGMDYWGQGTQVTVSS,low polyreactivity
7,QVQLVESGGGLVQAGGSLRLSCPASGLIIGVYAMGWYRQEPGKERELVAAITDGGSTYYADSVKGRFTISRDNAKNTVYLQMNSLKPEDTAVYYCNAEFRSSDYDYWGQGTQVTVSS,low polyreactivity
8,QVQLVESGGGLVQAGGSLRLSCPASGLNFTSYAMGWYRQAPGKERELVAAITWSGSSTYYADSVKGRFTISRDNAKNTVYLQMNSLKPEDTAVYYCAAYRYGRIYRQYAYDYWGQGTQVTVSS,high polyreactivity
9,QVQLVESGGGLVQAGGSLRLSCPASGNIFGNNAMGWYRQAPGKERELVAAIDGSGGSTYYADSVKGRFTISRDKAKNTVYLQMNSLKPEDTAVYYCAKTAVIWRTWRTVPSPGYHFGYWGQGTQVTVSS,low polyreactivity
10,QVQLVESGGGLVQAGGSLRLSCPASGRIFLGNLMGWYRQAPGKERELVAAISWSGGSTYADSVKGRFTISRDNAKNTVYFQMNSLKPEDTAVYYCAKDEGTFYNSYDYWGQGTQVTVSS,low polyreactivity
11,QVQLVESGGGLVQAGGSLRLSCPASGRIFPRYAMGWYRPAPGKERELVARITRRGGITYYADSVKGRFTISRDNAQNTVYLEMNSLKPEDTAVYYCNVDYYRGGDFSYGYDYWGQGTQLTVSS,high polyreactivity
12,QVQLVESGGGLVQAGGSLRLSCPASGRIFYYNAIGWYRQAPGKERELVATITRAGGTYYADSVKGRFTISRDNAKNTVYLQMNSLKPEDTAVYYCAKRHPIVDDYKGDYWGQGTQVTVSS,low polyreactivity
13,QVQLVESGGGLVQAGGSLRLSCPASGRIIAWYAMGWYRQAPGKERELVAVITSSGGSTYYADSVKGRFTISRDNAKNTVYFMMNRLKPEDTAVYYCARKVVSPAWSHDFYYWGLGTQVTVSS,low polyreactivity
14,QVQLVESGGGLVQAGGSLRLSCPASGRTFPGYSKGWYRQAPGKERELVATITGNGGSTYYADSVKGRFTISRENAKNTVYLQMNSLKPEDTAVYYCAGGRRRPYVRAYRGTDYWVQGTQVTVSS,low polyreactivity
15,QVQLVESGGGLVQAGGSLRLSCPASGRTFYKNAMGWYRQAPGKERELVAAITSGGSTNYADSVKGRFTISRDNAKNTVYLQMNSLKSEDTAVYYCAAQQFPYYRSRYSYINKYDYWGQGTQVTVSS,high polyreactivity
16,QVQLVESGGGLVQAGGSLRLSCPASGSIFDPYAMGWYRQAPGKERELVAAITASGSSTYYADSVKGRFTISRDNAKNTVYLQMNSLKPEDTAVYYCAADRAKWEYLLSWLGYDYWGQGTQVTVSS,low polyreactivity
17,QVQLVESGGGLVQAGGSLRLSCPASGSIFFYAMGWYRQAPGKERELVADITYTGGSKYADSVKGRFTISRDNAKNTVYLQMNSLKPEDTAFYYCANLDGGLFDYWGQGTQVTVSS,low polyreactivity
18,QVQLVESGGGLVQAGGSLRLSCPASGSIFGSYAMGWYRQAPGKERELVASITRVDSTNYADSVKGRFTISRDNAKNTVYLQMNRLKPEDTAVYYCNAGKTIDYRDGVGYDHWGQGTQVTVSS,low polyreactivity
19,QVQLVESGGGLVQAGGSLRLSCPASGSILYSYAMGWYRQAHGKERELVAAITGDGASTNYADSVKGRFTISRDNAKNTVYFQMNSLKPEDTAVYYCNAGRESDDVYEGSQRIGQFDYWGQGTLVTVSS,low polyreactivity
20,QVQLVESGGGLVQAGGSLRLSCPASGSISYFNAMGGYRQAPGKERELVAAITSCGSTYYADSVKGRFTISRDNAKNSVYLQMNSLKPEDTAVYYCAADDSWFYYGYGYWGQGTQVTVSS,low polyreactivity
21,QVQLVESGGGLVQAGGSLRLSCPASGSNLSRYAMGWYRQAPGKERELVAGITWRGGSTYYADSVKGRFTISRDNAKNTVYLQMNSLKPEDTAVYYCARRYGGYKWVRAYYYWGQGTQVTLSS,high polyreactivity
22,QVQLVESGGGLVQAGGSLRLSCPSSGIIFYYYAMGWYRQAPGKERELVAAINFSVGGTYYADSVKGRFTISRDNAKNTVYLQMNSEKPEDTEVYYCAKDIVIPATYVEYDYWGQGTQVTVSS,low polyreactivity
